This is an account of results in US20240262923A1 (Sanofi, published 2024).

B1: MC1 (conditionally-active, masked Optimized Construct #3; MM1 and cleavable linker #1) (bispecific antibody)
heavy: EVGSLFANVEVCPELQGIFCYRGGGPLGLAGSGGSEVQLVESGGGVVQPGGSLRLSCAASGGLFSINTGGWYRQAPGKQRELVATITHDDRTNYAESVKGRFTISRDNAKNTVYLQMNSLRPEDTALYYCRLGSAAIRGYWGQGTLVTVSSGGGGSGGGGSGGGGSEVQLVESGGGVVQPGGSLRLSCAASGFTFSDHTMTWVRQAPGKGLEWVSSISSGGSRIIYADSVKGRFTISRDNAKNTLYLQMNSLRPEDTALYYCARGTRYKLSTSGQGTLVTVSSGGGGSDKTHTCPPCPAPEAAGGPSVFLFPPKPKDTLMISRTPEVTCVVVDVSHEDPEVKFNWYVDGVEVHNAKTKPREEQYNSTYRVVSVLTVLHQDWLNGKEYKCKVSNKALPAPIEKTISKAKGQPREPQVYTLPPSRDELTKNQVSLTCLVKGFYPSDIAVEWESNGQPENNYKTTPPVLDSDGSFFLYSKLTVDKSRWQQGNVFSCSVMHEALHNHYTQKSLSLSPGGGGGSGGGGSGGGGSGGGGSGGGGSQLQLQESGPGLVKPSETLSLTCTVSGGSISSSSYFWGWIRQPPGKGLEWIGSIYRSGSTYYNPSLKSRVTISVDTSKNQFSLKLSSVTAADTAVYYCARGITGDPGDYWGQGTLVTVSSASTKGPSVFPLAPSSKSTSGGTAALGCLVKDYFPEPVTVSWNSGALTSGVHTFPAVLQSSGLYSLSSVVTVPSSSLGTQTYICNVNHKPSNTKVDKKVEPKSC
light: EIVLTQSPATLSLSPGERATLSCGASQSVPINFLAWYQQKPGLAPRLLIYEASSRHTGIPDRFSGSGSGTDFTLTISRLEPEDFAVYYCGQYGSSPYTFGQGTKLEIKRTVAAPSVFIFPPSDEQLKSGTASVVCLLNNFYPREAKVQWKVDNALQSGNSQESVTEQDSKDSTYSLSSTLTLSKADYEKHKVYACEVTHQGLSSPVTKSFNRGEC
B2: MC3 (conditionally-active, masked Optimized Construct #3; MM1 and cleavable linker #2) (bispecific antibody)
heavy: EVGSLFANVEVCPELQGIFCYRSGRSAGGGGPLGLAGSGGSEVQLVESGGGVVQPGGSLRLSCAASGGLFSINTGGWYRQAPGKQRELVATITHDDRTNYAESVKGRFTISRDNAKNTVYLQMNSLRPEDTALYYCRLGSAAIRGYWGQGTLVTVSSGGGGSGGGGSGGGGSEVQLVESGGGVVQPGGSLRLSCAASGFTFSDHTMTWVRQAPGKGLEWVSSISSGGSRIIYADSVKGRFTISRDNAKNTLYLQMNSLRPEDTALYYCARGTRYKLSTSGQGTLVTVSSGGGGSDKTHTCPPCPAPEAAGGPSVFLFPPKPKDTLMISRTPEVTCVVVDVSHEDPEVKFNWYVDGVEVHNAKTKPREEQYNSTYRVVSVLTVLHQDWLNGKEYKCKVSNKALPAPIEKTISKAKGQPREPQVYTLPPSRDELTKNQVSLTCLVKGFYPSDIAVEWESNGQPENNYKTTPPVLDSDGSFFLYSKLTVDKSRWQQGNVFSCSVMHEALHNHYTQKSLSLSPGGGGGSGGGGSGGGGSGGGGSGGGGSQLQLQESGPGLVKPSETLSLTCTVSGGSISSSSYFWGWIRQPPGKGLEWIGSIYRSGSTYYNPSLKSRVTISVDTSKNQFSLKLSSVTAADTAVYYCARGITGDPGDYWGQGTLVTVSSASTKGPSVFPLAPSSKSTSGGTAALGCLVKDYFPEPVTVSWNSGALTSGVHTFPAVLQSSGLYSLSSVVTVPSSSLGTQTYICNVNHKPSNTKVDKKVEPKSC
light: B1 light
B3: MC2 (conditionally-active, masked Optimized Construct #3; MM2 and cleavable linker #1) (bispecific antibody)
heavy: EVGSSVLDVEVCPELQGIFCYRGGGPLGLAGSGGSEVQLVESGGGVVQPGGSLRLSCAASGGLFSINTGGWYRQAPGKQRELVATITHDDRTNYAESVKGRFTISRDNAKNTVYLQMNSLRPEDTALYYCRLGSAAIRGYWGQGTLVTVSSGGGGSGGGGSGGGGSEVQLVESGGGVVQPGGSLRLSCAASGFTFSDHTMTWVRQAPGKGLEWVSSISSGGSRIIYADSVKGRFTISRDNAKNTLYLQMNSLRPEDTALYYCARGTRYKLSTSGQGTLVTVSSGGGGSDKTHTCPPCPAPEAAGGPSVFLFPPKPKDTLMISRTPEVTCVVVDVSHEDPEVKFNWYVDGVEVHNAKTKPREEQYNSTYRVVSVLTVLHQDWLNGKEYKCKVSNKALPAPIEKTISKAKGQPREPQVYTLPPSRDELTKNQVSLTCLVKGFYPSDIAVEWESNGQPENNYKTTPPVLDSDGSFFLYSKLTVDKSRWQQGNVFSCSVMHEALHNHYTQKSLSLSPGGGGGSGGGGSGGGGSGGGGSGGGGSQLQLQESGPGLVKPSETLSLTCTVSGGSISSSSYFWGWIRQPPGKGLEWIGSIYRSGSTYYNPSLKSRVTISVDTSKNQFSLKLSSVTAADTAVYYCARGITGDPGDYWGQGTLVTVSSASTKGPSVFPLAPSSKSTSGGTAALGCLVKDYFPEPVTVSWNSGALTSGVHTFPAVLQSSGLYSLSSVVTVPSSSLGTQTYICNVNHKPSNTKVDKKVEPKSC
light: B1 light
B4: MC4 (conditionally-active, masked Optimized Construct #3; MM2 and cleavable linker #2) (bispecific antibody)
heavy: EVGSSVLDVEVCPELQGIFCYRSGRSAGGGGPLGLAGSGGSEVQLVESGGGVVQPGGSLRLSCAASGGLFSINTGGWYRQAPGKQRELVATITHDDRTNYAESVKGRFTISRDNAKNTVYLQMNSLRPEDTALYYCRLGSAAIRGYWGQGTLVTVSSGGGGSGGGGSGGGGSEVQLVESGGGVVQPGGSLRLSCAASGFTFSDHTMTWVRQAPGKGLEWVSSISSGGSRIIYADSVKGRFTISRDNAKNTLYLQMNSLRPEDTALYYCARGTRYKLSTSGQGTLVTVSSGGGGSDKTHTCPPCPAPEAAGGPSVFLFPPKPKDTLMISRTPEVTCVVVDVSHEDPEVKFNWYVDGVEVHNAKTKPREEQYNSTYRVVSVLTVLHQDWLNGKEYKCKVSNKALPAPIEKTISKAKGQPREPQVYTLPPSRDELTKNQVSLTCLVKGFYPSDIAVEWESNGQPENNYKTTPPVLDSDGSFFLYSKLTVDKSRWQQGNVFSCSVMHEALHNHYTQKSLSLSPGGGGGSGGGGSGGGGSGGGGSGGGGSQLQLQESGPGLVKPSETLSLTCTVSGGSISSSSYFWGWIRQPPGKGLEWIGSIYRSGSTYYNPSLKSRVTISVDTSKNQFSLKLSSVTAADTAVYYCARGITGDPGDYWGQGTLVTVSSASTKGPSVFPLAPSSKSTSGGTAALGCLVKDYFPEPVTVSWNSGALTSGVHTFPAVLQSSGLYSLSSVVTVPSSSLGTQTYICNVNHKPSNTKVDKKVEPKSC
light: B1 light
B5: anti-4-1BB clone #2 VHH (VHH)
VHH: QVQLQESGGGLVQPGGSLRLSCAASGGLFSINTGGWYRQAPGKQRELVATITHDDRTNYAESVKGRFTLSRDNAKNTVYLQMNSLKPEDTAVYYCRLGSAAIRGYWGQGTQVTVSS
B6: anti-4-1BB clone #5a VHH, bivalent monoparatopic Fab-like construct (other)
chain 1: QVQLQESGGGWVQPGGSLRLSCAASGFAFRDFTMSWARQAPGERFEWISSINPSGGSQSYLPSVKGRFTISRDNAKNTMFLQMDNLTPEDTAVYFCARGTRYKMSTSGPGTQVTVSS
chain 2: B6 chain 1
notes: not shown: human CL (lambda) constant domain, tag if any; human IgG1 CH1 domain, HA and 6-His tags
B7: anti-4-1BB clone #5d VHH, bivalent monoparatopic Fab-like construct (other)
chain 1: QVQLQESGGGLVQPGGSLRLSCVASGFTFANYRMSWVRQAPGKGLEWVSSIKKSGNRTTYSDSVKGRFTISRDNAKNTMFLQMDNLTPEDTAVYFCARGTRYKMSTSGPGTQVTVSS
chain 2: B7 chain 1
notes: as for B6

T6 sequence (A9YYE7 entry or part of it): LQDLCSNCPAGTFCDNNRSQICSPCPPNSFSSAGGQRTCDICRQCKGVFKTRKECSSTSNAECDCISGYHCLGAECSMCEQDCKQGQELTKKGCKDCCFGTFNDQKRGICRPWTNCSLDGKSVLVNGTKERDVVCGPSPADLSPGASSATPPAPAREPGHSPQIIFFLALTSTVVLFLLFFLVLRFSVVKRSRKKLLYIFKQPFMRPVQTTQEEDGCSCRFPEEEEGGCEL

In the first experiment the target is T1, cynomolgus monkey PD-1 (SPR analyte) (cynomolgus monkey, UniProt B0LAJ3 25-170).
T1 construct: also called cyPD-1
T1 sequence (B0LAJ3 entry or part of it limits assumed): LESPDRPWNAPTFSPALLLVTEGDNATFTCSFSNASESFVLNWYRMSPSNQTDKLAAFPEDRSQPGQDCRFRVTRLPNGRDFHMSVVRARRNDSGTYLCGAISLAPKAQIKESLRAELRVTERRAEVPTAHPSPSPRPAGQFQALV
As to the kind of experiment: SPR, KD on cyPD-1 against KD on hPD-1. (In general: SPR reads the build-up and loss of mass on a sensor chip optically.)
Consider B1, for which the “Ratio KD cyno/human” value turned out to be 2.3 fold.

Turning to B2, the “Ratio KD cyno/human” value came out at 2 fold.

For the molecule B3, the “Ratio KD cyno/human” value is 2.2 fold.

In the case of B4, the “Ratio KD cyno/human” value worked out at 2.7 fold.

In another experiment the target is T2, human PD-1 expressed on cells (300.19 pre-B cells, PD-1 NFAT-luc2 Jurkat cells, primary T-cells) (human, UniProt Q15116 25-288). In words: cell-based or functional assay.
T2 sequence (Q15116 25-288 limits assumed): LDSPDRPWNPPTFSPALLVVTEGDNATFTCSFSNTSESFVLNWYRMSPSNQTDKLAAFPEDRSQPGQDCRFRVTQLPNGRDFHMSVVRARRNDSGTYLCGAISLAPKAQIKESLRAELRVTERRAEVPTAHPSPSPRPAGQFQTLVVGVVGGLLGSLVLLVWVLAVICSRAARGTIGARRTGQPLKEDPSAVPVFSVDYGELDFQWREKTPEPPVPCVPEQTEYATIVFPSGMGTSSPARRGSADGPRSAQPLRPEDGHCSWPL
On to B1, for which the “EC50 value (nM), PD-1 reporter assay” value came to 2.43 nM.

Take B2: the “EC50 value (nM), PD-1 reporter assay” value stood at 2.62 nM.

As for B3, the “EC50 value (nM), PD-1 reporter assay” value was determined as 2.54 nM.

For the molecule B4, the “EC50 value (nM), PD-1 reporter assay” value amounted to 2.81 nM.

The target of another experiment is T3, human PD-1 (SPR analyte) (human, UniProt Q15116 25-167, limits assumed).
T3 construct: Soluble analyte in SPR; also called hPD-1
T3 sequence (Q15116 25-167 limits assumed): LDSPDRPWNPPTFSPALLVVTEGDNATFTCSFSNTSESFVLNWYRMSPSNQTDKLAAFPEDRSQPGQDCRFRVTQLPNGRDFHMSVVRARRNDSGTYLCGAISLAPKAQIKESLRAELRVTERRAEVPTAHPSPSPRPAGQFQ
As to the kind of experiment: SPR (Biacore 8K), binder captured on anti-Fc chip, target as analyte, 1:1 model.
One may read the Kd as the concentration at which binding is half-saturated. B1 came in with a dissociation constant Kd of 6.42 nM.

Molecule B2 returned a dissociation constant (Kd) of 6.73 nM.

Consider B3, for which the equilibrium dissociation constant (Kd) worked out at 7.73 nM.

The molecule B4 had a Kd of 6.82 nM.

The next experiment concerns the target T1, cynomolgus monkey PD-1 (SPR analyte). Described as above.
The molecule B1 showed a Kd of 14.9 nM.

The molecule B2 yielded a Kd of 13.4 nM.

Regarding B3, binding was characterised by a dissociation constant (Kd) of 17.3 nM.

B4 came in with a Kd of 18.3 nM.

A further experiment addresses T2, human PD-1 expressed on cells (300.19 …). In words: flow cytometry on PD-1+ Jurkat T-cells. On the technique in general: Flow cytometry measures light scatter and fluorescence of single cells or particles in a stream.
In general, EC50 refers to the concentration giving half of the maximal effect. Turning to B1, the EC50 worked out at 0.7 nM.

Molecule B2 displayed an EC50 of 0.89 nM.

Turning to B3, the EC50 is 0.78 nM.

As for B4, the half-maximal effective concentration (EC50) was 0.72 nM.

Another experiment has as its target T4, extracellular domain of human 4-1BB (amino acid residues 24-186 of SEQ ID NO: 13) (human, UniProt Q07011 24-186).
T4 construct: Used for X-ray crystallography
In words: X-ray crystallography of the complex.
For the molecule B5, the binding result is “binds”.

The target in a further experiment is T2, human PD-1 expressed on cells (300.19 …). As to the kind of experiment: flow cytometry on 300.19 pre-B cells.
Turning to B1, the EC50 stood at 1.65 nM.

Turning to B2, the EC50 worked out at 1.76 nM.

B3 yielded a half-maximal effective concentration (EC50) of 2.97 nM.

B4 came in with a half-maximal effective concentration (EC50) of 2.68 nM.

In another experiment the target is T5, cynomolgus monkey PD-1 expressed on 300.19 pre-B cells (cynomolgus monkey, UniProt B0LAJ3 25-288).
T5 construct: also called cyPD-1; Pre-B cyPD-1
T5 sequence (B0LAJ3 entry or part of it limits assumed): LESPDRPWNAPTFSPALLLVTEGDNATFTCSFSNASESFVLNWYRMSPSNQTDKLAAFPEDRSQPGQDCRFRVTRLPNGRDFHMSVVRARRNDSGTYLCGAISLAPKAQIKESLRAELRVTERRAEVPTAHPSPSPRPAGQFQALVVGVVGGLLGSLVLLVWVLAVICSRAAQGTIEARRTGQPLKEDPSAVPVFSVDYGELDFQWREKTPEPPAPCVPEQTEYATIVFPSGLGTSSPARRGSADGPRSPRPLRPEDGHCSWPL
As to the kind of experiment: flow cytometry on 300.19 pre-B cells.
As to B1, it took 1.67 nM to reach a half-maximal effect (EC50).

The molecule B2 yielded an EC50 of 1.4 nM.

As for B3, the concentration giving a half-maximal response (EC50) was determined as 1.5 nM.

B4 displayed an EC50 of 4.8 nM.

The next experiment concerns the target T6, cynomolgus monkey 4-1BB expressed on 300.19 pre-B cells (cynomolgus monkey, UniProt A9YYE7 24-254).
T6 construct: whole, on cells; also called cy4-1BB; Pre-B cy4-1BB
As to the kind of experiment: flow cytometry on 300.19 pre-B cells, cy4-1BB against h4-1BB.
For B1, the “Ratio EC50 cy/h” value stood at 0.07 fold.

As to B2, the “Ratio EC50 cy/h” value amounted to 0.23 fold.

Take B3: the “Ratio EC50 cy/h” value was 2.44 fold.

For the molecule B4, the “Ratio EC50 cy/h” value was found to be 1.01 fold.

The next experiment addresses T5, cynomolgus monkey PD-1 expressed on …. As to the kind of experiment: flow cytometry on 300.19 pre-B cells, cyPD-1 against hPD-1.
Regarding B1, the “Ratio EC50 cy/h” value turned out to be 0.99 fold.

In the case of B2, the “Ratio EC50 cy/h” value came out at 0.8 fold.

As to B3, the “Ratio EC50 cy/h” value came out at 0.51 fold.

With B4, the “Ratio EC50 cy/h” value was 1.79 fold.

The target in the next experiment is T6, cynomolgus monkey 4-1BB expressed on …. As to the kind of experiment: flow cytometry on 300.19 pre-B cells, cy4-1BB, against Optimized Construct #3.
For B1, the “masking efficacy (masked EC50/naked EC50)” value was determined as 7 fold.

In the case of B2, the “masking efficacy (masked EC50/naked EC50)” value was determined as 6 fold.

With B3, the “masking efficacy (masked EC50/naked EC50)” value turned out to be 18 fold.

As to B4, the “masking efficacy (masked EC50/naked EC50)” value is 11 fold.

The next experiment has as its target T7, human His-tagged 4-1BB recombinant protein (human, UniProt Q07011 24-186).
T7 construct: also called human 4-1BB; h4-1BB; not shown: His tag
As to the kind of experiment: ELISA binding on 4-1BB-his, bivalent monoparatopic Fab-like constructs. In general terms: In an ELISA, binding on a coated surface is turned into a signal by an enzyme label.
The term EC50 (read off the curve) denotes the concentration giving half of the maximal effect. Turning to B6, the half-maximal effective concentration (EC50 (read off the curve)) is approximately 0.5 nM.

With B7, the binding result is reported as “binds”.

The target of another experiment is T6, cynomolgus monkey 4-1BB expressed on …. In words: flow cytometry on 300.19 pre-B cells.
B1 registered an EC50 of 6.24 nM.

B2 showed an EC50 of 5.9 nM.

On to B3, for which the EC50 was found to be 16.6 nM.

B4 came in with an EC50 of 9.81 nM.
